Measured values: IntAct's records for PubMed 35512704

B1: Mothers against decapentaplegic homolog 4 (Homo sapiens), Q13485 (parent)
chain: MDNMSITNTPTSNDACLSIVHSLMCHRQGGESETFAKRAIESLVKKLKEKKDELDSLITAITTNGAHPSKCVTIQRTLDGRLQVAGRKGFPHVIYARLWRWPDLHKNELKHVKYCQYAFDLKCDSVCVNPYHYERVVSPGIDLSGLTLQSNAPSSMMVKDEYVHDFEGQPSLSTEGHSIQTIQHPPSNRASTETYSTPALLAPSESNATSTANFPNIPVASTSQPASILGGSHSEGLLQIASGPQPGQQQNGFTGQPATYHHNSTTTWTGSRTAPYTPNLPHHQNGHLQHHPPMPPHPGHYWPVHNELAFQPPISNHPAPEYWCSIAYFEMDVQVGETFKVPSSCPIVTVDGYVDPSGGDRFCLGQLSNVHRTEAIERARLHIGKGVQLECKGEGDVWVRCLSDHAVFVQSYYLDREAGRAPGDAVHKIYPSAYIKVFDLRQCHRQMQQQAATAQAAAAAQAAAVAGNIPGPGSVGGIAPAISLSAAAGIGVDDLRRLCILRMSFVKGWGPDYPRQSIKETPCWIEIHLHRALQLLDEVLHTMPIADPQPLD
partner: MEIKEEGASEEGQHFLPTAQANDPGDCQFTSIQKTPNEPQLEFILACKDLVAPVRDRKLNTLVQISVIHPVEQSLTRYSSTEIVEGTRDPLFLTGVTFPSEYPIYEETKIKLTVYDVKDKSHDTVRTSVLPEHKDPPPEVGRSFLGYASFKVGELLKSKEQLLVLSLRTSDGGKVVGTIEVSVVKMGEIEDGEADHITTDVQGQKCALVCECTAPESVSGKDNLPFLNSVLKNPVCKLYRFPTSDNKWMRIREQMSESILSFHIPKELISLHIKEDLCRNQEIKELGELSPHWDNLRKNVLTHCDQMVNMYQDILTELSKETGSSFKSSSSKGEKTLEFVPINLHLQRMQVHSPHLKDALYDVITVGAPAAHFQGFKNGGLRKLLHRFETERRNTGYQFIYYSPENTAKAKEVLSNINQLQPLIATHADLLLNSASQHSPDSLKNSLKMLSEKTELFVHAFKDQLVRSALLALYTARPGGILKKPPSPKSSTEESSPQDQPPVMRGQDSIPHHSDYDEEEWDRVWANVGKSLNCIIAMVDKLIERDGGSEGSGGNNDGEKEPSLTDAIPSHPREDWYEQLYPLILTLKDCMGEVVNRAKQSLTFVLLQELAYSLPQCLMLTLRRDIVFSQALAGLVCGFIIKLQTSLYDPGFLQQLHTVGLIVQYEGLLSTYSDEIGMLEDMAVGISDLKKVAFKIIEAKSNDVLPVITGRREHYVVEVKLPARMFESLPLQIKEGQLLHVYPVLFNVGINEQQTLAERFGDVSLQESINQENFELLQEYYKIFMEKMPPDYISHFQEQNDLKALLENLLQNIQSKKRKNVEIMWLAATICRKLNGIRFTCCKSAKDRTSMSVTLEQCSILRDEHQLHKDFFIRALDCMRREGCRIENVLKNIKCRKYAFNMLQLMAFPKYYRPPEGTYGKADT
B2: Mothers against decapentaplegic homolog 4 (Homo sapiens), Q13485 (parent)
chain: B1 chain
partner: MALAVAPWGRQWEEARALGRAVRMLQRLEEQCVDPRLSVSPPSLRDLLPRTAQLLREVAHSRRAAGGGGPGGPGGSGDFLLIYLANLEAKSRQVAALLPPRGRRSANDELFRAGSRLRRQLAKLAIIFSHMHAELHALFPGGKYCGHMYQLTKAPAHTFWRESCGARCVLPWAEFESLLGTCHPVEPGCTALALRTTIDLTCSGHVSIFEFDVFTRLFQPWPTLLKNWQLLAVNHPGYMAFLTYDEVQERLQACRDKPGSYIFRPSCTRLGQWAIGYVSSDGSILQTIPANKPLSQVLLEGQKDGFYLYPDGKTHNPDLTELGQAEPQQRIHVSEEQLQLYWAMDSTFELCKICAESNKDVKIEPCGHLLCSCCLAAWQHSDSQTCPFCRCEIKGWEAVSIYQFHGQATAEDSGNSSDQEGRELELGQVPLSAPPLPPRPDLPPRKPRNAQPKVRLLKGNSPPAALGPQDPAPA
B3: Mothers against decapentaplegic homolog 4 (Homo sapiens), Q13485 (parent)
chain: B1 chain
partner: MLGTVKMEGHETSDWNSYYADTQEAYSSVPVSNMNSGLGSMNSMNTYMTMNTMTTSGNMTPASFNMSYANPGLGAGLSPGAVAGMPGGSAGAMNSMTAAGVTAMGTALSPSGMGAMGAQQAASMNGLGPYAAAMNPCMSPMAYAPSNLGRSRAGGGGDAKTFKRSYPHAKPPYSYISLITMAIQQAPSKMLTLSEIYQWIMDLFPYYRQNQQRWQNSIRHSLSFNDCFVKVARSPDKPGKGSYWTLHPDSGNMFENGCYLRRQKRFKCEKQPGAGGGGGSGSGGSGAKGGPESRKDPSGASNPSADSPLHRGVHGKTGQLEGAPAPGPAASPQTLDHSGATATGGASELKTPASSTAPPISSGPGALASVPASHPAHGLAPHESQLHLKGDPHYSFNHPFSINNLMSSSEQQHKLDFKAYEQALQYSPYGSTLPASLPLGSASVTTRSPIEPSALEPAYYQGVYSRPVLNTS

Variants of: B1
Details: with inp4b_human INPP4B

| effect of a mutation on the interaction | Variant |
| --- | --- |
| with no effect | D351H |

Variants of: B1
Details: with inp4b_human INPP4B
Remark: another data set of the same source

| effect of a mutation on the interaction | Variant |
| --- | --- |
| with no effect | G386D |

Variants of: B1
Details: with inp4b_human INPP4B
Remark: another data set of the same source

| effect of a mutation on the interaction | Variant |
| --- | --- |
| with no effect | R361H |

Variants of: B1
Details: with inp4b_human INPP4B
Remark: another data set of the same source

| effect of a mutation on the interaction | Variant |
| --- | --- |
| with no effect | R361C |

Variants of: B2
Details: with cblc_human CBLC

| effect of a mutation on the interaction | Variant |
| --- | --- |
| with no effect | G386D |

Variants of: B2
Details: with cblc_human CBLC
Remark: another data set of the same source

| effect of a mutation on the interaction | Variant |
| --- | --- |
| with no effect | R361H |

Variants of: B2
Details: with cblc_human CBLC
Remark: another data set of the same source

| effect of a mutation on the interaction | Variant |
| --- | --- |
| with no effect | R361C |

Variants of: B2
Details: with cblc_human CBLC
Remark: another data set of the same source

| effect of a mutation on the interaction | Variant |
| --- | --- |
| with no effect | D351H |

Variants of: B3
Details: with foxa1_human FOXA1, P55317

| effect of a mutation on the interaction | Variant |
| --- | --- |
| with no effect | D351H |

Variants of: B3
Details: with foxa1_human FOXA1, P55317
Remark: another data set of the same source

| effect of a mutation on the interaction | Variant |
| --- | --- |
| with no effect | G386D |

Variants of: B3
Details: with foxa1_human FOXA1, P55317
Remark: another data set of the same source

| effect of a mutation on the interaction | Variant |
| --- | --- |
| with no effect | R361H |

Variants of: B3
Details: with foxa1_human FOXA1, P55317
Remark: another data set of the same source

| effect of a mutation on the interaction | Variant |
| --- | --- |
| with no effect | R361C |
